We go through one substance from patent US20110053195.

Series [1] relates to xylanase inhibitors present in wheat extract (WE).
The test system of series [2] is Wheat xylanase inhibitors WXI11.5, eluted from the Xy1A1A affinity column with 50% ethylene glycol pH 11.5.

Sequence of Pichia pastoris produced Xy1A1A_E79A inactive xylanase (chain, as listed by the source E79A): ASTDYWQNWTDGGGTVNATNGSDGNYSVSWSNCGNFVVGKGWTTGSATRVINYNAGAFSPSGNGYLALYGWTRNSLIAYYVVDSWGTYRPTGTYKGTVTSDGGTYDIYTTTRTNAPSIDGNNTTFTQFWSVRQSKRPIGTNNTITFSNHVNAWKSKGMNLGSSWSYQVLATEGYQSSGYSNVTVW

Turning to “Pichia pastoris produced Xy1A1A_E79A inactive xylanase”, in series [1], the “recovery of xylanase activity (azo-WAXY, A595) of added Xy1A1A in wheat flour extract” value was “Of the 24 isolates tested, 9 showed recovery of xylanase activity”. In series [2], the % Residual Activity of Avizyme 1310 with WXI pH11.5 (0.58 µg/ml) and XylA1A E79A (100 µg/ml) is 121%; the % Residual Activity of XylA1A with WXI pH11.5 (0.58 µg/ml) and XylA1A E79A (100 µg/ml) was 96.1%; the Xylanase Activity (umol/min/mg) of Avizyme 1310 with WXI pH11.5 (0.58 µg/ml) and XylA1A E79A (100 µg/ml) worked out at 6880 µmol/min/mg; the Xylanase Activity (umol/min/mg) of XylA1A with WXI pH11.5 (0.58 µg/ml) and XylA1A E79A (100 µg/ml) is 4420 µmol/min/mg.
